Measured values: patent US20130195871A1 (AbbVie / Abbott, published 2013)
One block for each binder: values may come before it.

How the values were obtained:
[1] = molecular target: T1, EGFR on the cell surface (human, UniProt P00533 25-1210); assay: flow cytometry on cells, 2 ug/mL, C-terminal VD;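 further: cells stained for 30 to 60 min on ice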
T1 construct: whole, on cells
Procedure: Stable cell lines overexpressing a cell-surface antigen of interest or human tumor cell lines were harvested from tissue culture flasks and resuspended in phosphate buffered saline (PBS) containing 5% fetal bovine serum (PBS/FBS). Prior to staining, human tumor cells were incubated on ice with (100 μl) human IgG at 5 μg/ml in PBS/FCS. 1-5×10⁵ cells were incubated with antibody or DVD-Ig (2 μg/mL) in PBS/FBS for 30-60 minutes on ice. […] After 30 minutes incubation on ice, cells were washed twice and resuspended in PBS/FBS. Fluorescence was measured using a Becton Dickinson FACSCalibur (Becton Dickinson, San Jose, Calif.).
The geometric mean is the n root of the multiplication product of n fluorescent signals (a1×a2×a3 . . . an). With log-transformed data the geometric mean is used to normalize the weighting of the data distribution.

[2] = molecular target: T2, Recombinant Human MSP Receptor ECD-His tag (human, UniProt Q04912 25-957); assay: SPR (Biacore), C-terminal VD;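 further: surface plasmon resonance with DVD-Ig proteins captured on an anti-IgG chip and recombinant antigen flowed over in HBS-EP buffer, Langmuir global fit, KD taken as koff/kon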
T2 construct: extracellular domain; bought reagent; also called RON

[3] = molecular target: T3, Recombinant Human ErbB3/FC Chimera-His tag (human, UniProt P21860 20-643); assay: SPR (Biacore), N-terminal VD;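 further: capture of antibodies or DVD-Ig proteins on an anti-mouse IgG chip surface, recombinant antigen injected at 10–200 nM in HBS-EP running buffer at 25 °C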
T3 construct: bought reagent

GEO MEAN [1]: 252
B1: DVD2338 (bispecific antibody)
VH: QVQLQESGPGLVKPSEILSLTCTVSGGSISSHYWSWVRQPPGKGLEWIGYIYYSGSTNYNPSLKSRVTISVDTSKNQFSLNLSSVTAADTAVYYCARIPNYYDRSGYYPGYWYFDLWGRGTLVTVSSASTKGPEVQLVESGGGLVQPGGSLRLSCAASGFSLTNYGVHWVRQAPGKGLEWLGVGWSGGNTDYNTPFTSRLTINKDNSKNTVYLQMNSLRAEDTAVYYCARALTWYDYEFAYWGQGTLVTVSS
VL: QAVLTQPSSLSAPPGASASLTCTLRSGFNVDSYRISWYQQKPGSPPQYLLRYKSDSDKQQGSGVPSRFSGSKDASANAGILLISGLQSEDEADYYCMIWHSSAWVFGGGTKLTVLRQPKAAPDILLTQSPGTLSLSPGERATLSCRASQSIYTNIHWYQQKPGQAPRLLIKYASESISGIPDRFSGSGSGTDFTLTISRLEPEDFAVYYCQQNLNWPTTFGQGTKLEIK
notes: DVD-Ig, outer AB034 / inner AB400

GEO MEAN [1]: 266
B2: DVD2307 (bispecific antibody)
VH: EVQLVQSGGGLVKPGGSLRLSCAASGFTFSSFAMHWVRQAPGKGLEWISVIDTRGATYYADSVKGRFTISRDNAKNSLYLQMNSLRAEDTAVYYCARLGNFYYGMDVWGQGTTVTVSSASTKGPEVQLVESGGGLVQPGGSLRLSCAASGFSLTNYGVHWVRQAPGKGLEWLGVGWSGGNTDYNTPFTSRLTINKDNSKNTVYLQMNSLRAEDTAVYYCARALTWYDYEFAYWGQGTLVTVSS
VL: EIVLTQSPGTLSVSPGERATLSCRASQSIGSSLHWYQQKPGQAPRLLIKYASQSLSGIPDRFSGSGSGTDFTLTISRLEPEDFAVYYCHQSSRLPHTFGQGTKVEIKRTVAAPDILLTQSPGTLSLSPGERATLSCRASQSIYTNIHWYQQKPGQAPRLLIKYASESISGIPDRFSGSGSGTDFTLTISRLEPEDFAVYYCQQNLNWPTTFGQGTKLEIK
notes: DVD-Ig, outer AB077 / inner AB400

GEO MEAN [1]: 320
B3: DVD2299 (bispecific antibody)
VH: EVQLVQSGGGLVKPGGSLRLSCAASGFTFSSYAMHWVRQAPGKGLEWVAVISYDGSNKYYADSVKGRFTISRDNSKNTLYLQMNSLRAEDTAVYYCARFSGWPNNYYYYGMDVWGQGTTVTVSSASTKGPEVQLVESGGGLVQPGGSLRLSCAASGFSLTNYGVHWVRQAPGKGLEWLGVGWSGGNTDYNTPFTSRLTINKDNSKNTVYLQMNSLRAEDTAVYYCARALTWYDYEFAYWGQGTLVTVSS
VL: DVVMTQSPLSLPVTPGEPASISCRSSQSLLHSNGFNYVDWYLQKPGQSPHLLIYFGSYRASGVPDRFSGSGSGTDFTLKISRVEAEDVGVYYCMQALQTPPWTFGQGTKVEIRRTVAAPDILLTQSPGTLSLSPGERATLSCRASQSIYTNIHWYQQKPGQAPRLLIKYASESISGIPDRFSGSGSGTDFTLTISRLEPEDFAVYYCQQNLNWPTTFGQGTKLEIK
notes: DVD-Ig, outer AB005 / inner AB400

binding result [2]: no binding (tested: 10-200 nM)
Kd [3]: 7.7 nM
koff [3]: 0.00046 s⁻¹
kon [3]: 60000 M⁻¹ s⁻¹
B4: DVD2323 (bispecific antibody)
VH: QVQLQQWGAGLLKPSETLSLTCAVYGGSFSGYYWSWIRQPPGKGLEWIGEINHSGSTNYNPSLKSRVTISVETSKNQFSLKLSSVTAADTAVYYCARDKWTWYFDLWGRGTLVTVSSASTKGPEVQLVQSGGGLVKPGGSLRLSCAASGFTFSSYAMHWVRQAPGKGLEWVAVISYDGSNKYYADSVKGRFTISRDNSKNTLYLQMNSLRAEDTAVYYCARFSGWPNNYYYYGMDVWGQGTTVTVSS
VL: DIEMTQSPDSLAVSLGERATINCRSSQSVLYSSSNRNYLAWYQQNPGQPPKLLIYWASTRESGVPDRFSGSGSGTDFTLTISSLQAEDVAVYYCQQYYSTPRTFGQGTKVEIKRTVAAPDVVMTQSPLSLPVTPGEPASISCRSSQSLLHSNGFNYVDWYLQKPGQSPHLLIYFGSYRASGVPDRFSGSGSGTDFTLKISRVEAEDVGVYYCMQALQTPPWTFGQGTKVEIR
notes: DVD-Ig, outer AB062 / inner AB005

binding result [2]: no binding (tested: 10-200 nM)
binding result [3]: no binding (tested: 10-200 nM)
B5: DVD2333 (bispecific antibody)
VH: EVQLLESGGGLVQPGGSLRLSCAASGFTFSHYVMAWVRQAPGKGLEWVSSISSSGGWTLYADSVKGRFTISRDNSKNTLYLQMNSLRAEDTAVYYCTRGLKMATIFDYWGQGTLVTVSSASTKGPQVQLQESGPGLVKPSEILSLTCTVSGGSISSHYWSWVRQPPGKGLEWIGYIYYSGSTNYNPSLKSRVTISVDTSKNQFSLNLSSVTAADTAVYYCARIPNYYDRSGYYPGYWYFDLWGRGTLVTVSS
VL: QSALTQPASVSGSPGQSITISCTGTSSDVGSYNVVSWYQQHPGKAPKLIIYEVSQRPSGVSNRFSGSKSGNTASLTISGLQTEDEADYYCCSYAGSSIFVIFGGGTKVTVLGQPKAAPQAVLTQPSSLSAPPGASASLTCTLRSGFNVDSYRISWYQQKPGSPPQYLLRYKSDSDKQQGSGVPSRFSGSKDASANAGILLISGLQSEDEADYYCMIWHSSAWVFGGGTKLTVL
notes: DVD-Ig, outer AB116 / inner AB034

binding result [2]: no binding (tested: 10-200 nM)
Kd [3]: 12 nM
koff [3]: 0.00031 s⁻¹
kon [3]: 25000 M⁻¹ s⁻¹
B6: DVD2321 (bispecific antibody)
VH: EVQLLESGGGLVQPGGSLRLSCAASGFTFSHYVMAWVRQAPGKGLEWVSSISSSGGWTLYADSVKGRFTISRDNSKNTLYLQMNSLRAEDTAVYYCTRGLKMATIFDYWGQGTLVTVSSASTKGPEVQLVQSGGGLVKPGGSLRLSCAASGFTFSSYAMHWVRQAPGKGLEWVAVISYDGSNKYYADSVKGRFTISRDNSKNTLYLQMNSLRAEDTAVYYCARFSGWPNNYYYYGMDVWGQGTTVTVSS
VL: QSALTQPASVSGSPGQSITISCTGTSSDVGSYNVVSWYQQHPGKAPKLIIYEVSQRPSGVSNRFSGSKSGNTASLTISGLQTEDEADYYCCSYAGSSIFVIFGGGTKVTVLGQPKAAPDVVMTQSPLSLPVTPGEPASISCRSSQSLLHSNGFNYVDWYLQKPGQSPHLLIYFGSYRASGVPDRFSGSGSGTDFTLKISRVEAEDVGVYYCMQALQTPPWTFGQGTKVEIR
notes: DVD-Ig, outer AB116 / inner AB005

GEO MEAN [1]: 6.47
B7: DVD2343 (bispecific antibody)
VH: EVQLVESGGGLVQPGGSLRLSCAASGFTFTDYTMDWVRQAPGKGLEWVADVNPNSGGSIYNQRFKGRFTLSVDRSKNTLYLQMNSLRAEDTAVYYCARNLGPSFYFDYWGQGTLVTVSSASTKGPQVQLQESGPGLVKPSQTLSLTCTVSGYSISSDFAWNWIRQPPGKGLEWMGYISYSGNTRYQPSLKSRITISRDTSKNQFFLKLNSVTAADTATYYCVTAGRGFPYWGQGTLVTVSS
VL: DIQMTQSPSSLSASVGDRVTITCKASQDVSIGVAWYQQKPGKAPKLLIYSASYRYTGVPSRFSGSGSGTDFTLTISSLQPEDFATYYCQQYYIYPYTFGQGTKVEIKRTVAAPDIQMTQSPSSMSVSVGDRVTITCHSSQDINSNIGWLQQKPGKSFKGLIYHGTNLDDGVPSRFSGSGSGTDYTLTISSLQPEDFATYYCVQYAQFPWTFGGGTKLEIK

GEO MEAN [1]: 185
B8: DVD2303 (bispecific antibody)
VH: EVQLVESGGGLVQPGGSLRLSCAASGFTFTDYTMDWVRQAPGKGLEWVADVNPNSGGSIYNQRFKGRFTLSVDRSKNTLYLQMNSLRAEDTAVYYCARNLGPSFYFDYWGQGTLVTVSSASTKGPEVQLVESGGGLVQPGGSLRLSCAASGFSLTNYGVHWVRQAPGKGLEWLGVGWSGGNTDYNTPFTSRLTINKDNSKNTVYLQMNSLRAEDTAVYYCARALTWYDYEFAYWGQGTLVTVSS
VL: DIQMTQSPSSLSASVGDRVTITCKASQDVSIGVAWYQQKPGKAPKLLIYSASYRYTGVPSRFSGSGSGTDFTLTISSLQPEDFATYYCQQYYIYPYTFGQGTKVEIKRTVAAPDILLTQSPGTLSLSPGERATLSCRASQSIYTNIHWYQQKPGQAPRLLIKYASESISGIPDRFSGSGSGTDFTLTISRLEPEDFAVYYCQQNLNWPTTFGQGTKLEIK
notes: DVD-Ig, outer AB080 / inner AB400
